One block for each binder: values may come before it.
Assays:
myostatin = biological target: T1, myostatin (UniProt O14793 267-375, limits assumed); assay: cell-based or functional assay
T1 sequence (looked up): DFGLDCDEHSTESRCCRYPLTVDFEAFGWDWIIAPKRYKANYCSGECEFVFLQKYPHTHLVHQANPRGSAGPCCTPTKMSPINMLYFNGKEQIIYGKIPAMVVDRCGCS

FcRn = assay: Biacore FcRn binding

IC50(nM), in vitro cell based myostatin inhibition assay (luciferase reporter, C2C12 pMARE-luc) (myostatin): 0.873 nM
B1: Fc-Loop TN8-19-7 construct with insertion at L139/T140 and asymmetric Gly4/Gly6 linkers (CH3 domain) (Fc fusion)
chain: MDKTHTCPPCPAPELLGGPSVFLFPPKPKDTLMISRTPEVTCVVVDVSHEDPEVKFNWYVDGVEVHNAKTKPREEQYNSTYRVVSVLTVLHQDWLNGKEYKCKVSNKALPAPIEKTISKAKGQPREPQVYTLPPSRDELGGGGLADHGQCIRWPWMCPPEGWEGGGGGGTKNQVSLTCLVKGFYPSDIAVEWESNGQPENNYKTTPPVLDSDGSFFLYSKLTVDKSRWQQGNVFSCSVMHEALHNHYTQKSLSLSPGK

EC50 (FcRn): ~680 nM
B2: Fc-Loop TN8-19-7 construct with insertion at Y77/N78 (CH2 domain) (Fc fusion, not shown: small tags and cut ends)
chain: MDKTHTCPPCPAPELLGGPSVFLFPPKPKDTLMISRTPEVTCVVVDVSHEDPEVKFNWYVDGVEVHNAKTKPREEQYLADHGQCIRWPWMCPPEGWENSTYRVVSVLTVLHQDWLNGKEYKCKVSNKALPAPIEKTISKAKGQPREPQVYTLPPSRDELTKNQVSLTCLVKGFYPSDIAVEWESNGQPENNYKTTPPVLDSDGSFFLYSKLTVDKSRWQQGNVFSCSVMHEALHNHYTQKSLSLSPGK

EC50 (FcRn): ~680 nM
B3: Fc-Loop TN8-19-7 construct with insertion at H49/E50 (CH2 domain) (Fc fusion, not shown: small tags and cut ends)
chain: MDKTHTCPPCPAPELLGGPSVFLFPPKPKDTLMISRTPEVTCVVVDVSHLADHGQCIRWPWMCPPEGWEEDPEVKFNWYVDGVEVHNAKTKPREEQYNSTYRVVSVLTVLHQDWLNGKEYKCKVSNKALPAPIEKTISKAKGQPREPQVYTLPPSRDELTKNQVSLTCLVKGFYPSDIAVEWESNGQPENNYKTTPPVLDSDGSFFLYSKLTVDKSRWQQGNVFSCSVMHEALHNHYTQKSLSLSPGK

IC50(nM), in vitro cell based myostatin inhibition assay (luciferase reporter, C2C12 pMARE-luc) (myostatin): 0.834 nM
B4: Fc-loop TN8-19-07 (clone #6951) (Fc fusion)
chain: MDKTHTCPPCPAPELLGGPSVFLFPPKPKDTLMISRTPEVTCVVVDVSHEDPEVKFNWYVDGVEVHNAKTKPREEQYNSTYRVVSVLTVLHQDWLNGKEYKCKVSNKALPAPIEKTISKAKGQPREPQVYTLPPSRDELGGLADHGQCIRWPWMCPPEGWEGGTKNQVSLTCLVKGFYPSDIAVEWESNGQPENNYKTTPPVLDSDGSFFLYSKLTVDKSRWQQGNVFSCSVMHEALHNHYTQKSLSLSPGK
